Source: article PMC5716572, “Regulation of potassium dependent ATPase (kdp) operon of Deinococcus radiodurans”
Where a chain is given by its changes, count along the chain named.

What was measured:
[1] = biological target: T1, RR (KdpE-like response regulator) (Deinococcus radiodurans R1 ATCC BAA-816, UniProt Q9RZP1 1-209); assay: EMSA; details: apparent; Hill coefficient 1.36 ± 0.17; unphosphorylated; 20 mM HEPES pH 7.6, 10 mM (NH4)2SO4, 30 mM KCl, 1 mM EDTA, 1 mM DTT, 0.2% Tween20, 37°C 1 h; 10% native PAGE in 0.5X TBE
T1 sequence: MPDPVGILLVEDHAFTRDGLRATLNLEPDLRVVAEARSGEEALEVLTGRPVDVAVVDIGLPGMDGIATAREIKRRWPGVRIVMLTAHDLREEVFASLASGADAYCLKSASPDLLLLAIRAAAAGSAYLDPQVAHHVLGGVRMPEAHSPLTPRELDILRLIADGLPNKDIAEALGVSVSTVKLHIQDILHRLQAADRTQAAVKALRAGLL

[2] = biological target: T2, RR (KdpE-like response regulator) (Deinococcus radiodurans R1 ATCC BAA-816) (UniProt Q9RZP1); assay: EMSA; details: 20 mM HEPES pH 7.6, 10 mM (NH4)2SO4, 30 mM KCl, 1 mM EDTA, 1 mM DTT, 0.2% Tween20, 37°C 1 h; 10% native PAGE in 0.5X TBE
T2 sequence: T1 sequence with Q131R

[3] = biological target: T1, RR (KdpE-like response regulator); assay: EMSA; 12% native PAGE; 20 mM HEPES pH 7.6, 10 mM (NH4)2SO4, 30 mM KCl, 1 mM EDTA, 1 mM DTT, 0.2% Tween20, 37°C 1 h; 10% native PAGE in 0.5X TBE; details: protein: recombinant; tags: C-terminal His tag (pET29b NdeI/XhoI, Ni-NTA; position implied by vector); chain copies: 2; label: DIG-ddUTP; blunt

## PkdpB-200
[1]
  Kd: 3.62 µM

## GGCCTTGATGAGGTTCTTGTCCTTGGCGTACTTGTTGAGCACGCGGGTGTACGCCGTCTTGAAGCCGGTCAGCGGGGTGCCGCCGTCGCGGGTGCGGATCATGTTGGCGTAGGTCAGGATGTTGTCGCTGGCGTAGGTGTTGGCGTGGATAAA (double strand) [nsDNA (DR_0906 fragment)]
[2]
  binding: no binding

B1: PkdpB-38 (dsDNA)
DNA 1: AACGGCGCTATGAGTCTTTCTTCTTTCCGGTGGCGGCC
DNA 2: GGCCGCCACCGGAAAGAAGAAAGACTCATAGCGCCGTT
[3]
  binding result: binds
